In patent publication US20230383001A1 (Kyowa Kirin, published 2023):

Target: T1, OX40 on OX40-positive helper T-cells in blood of patients (human, UniProt P43489 29-277)
T1 construct: whole, on cells; The cells came from trial patients; also called CD134; human OX40
T1 sequence (looked up): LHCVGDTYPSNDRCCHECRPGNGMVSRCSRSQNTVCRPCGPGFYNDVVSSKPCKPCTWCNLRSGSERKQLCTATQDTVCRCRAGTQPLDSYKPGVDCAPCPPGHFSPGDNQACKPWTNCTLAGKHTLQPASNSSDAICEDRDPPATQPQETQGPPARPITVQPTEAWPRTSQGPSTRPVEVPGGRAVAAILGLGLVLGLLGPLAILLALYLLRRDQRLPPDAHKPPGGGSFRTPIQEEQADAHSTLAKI
Assay: flow cytometry of patients' blood after dosing: total versus unoccupied OX40-positive helper T cells (receptor occupancy, ex vivo)
Protocol: Blood samples for flow cytometry are collected from the subjects who voluntarily agree. When the timing overlaps the study drug administration, the sample is taken before the study drug administration. The OX40-positive cells and the CLA-positive memory T cells in the blood of the patients are counted. When OX40-positive cells in the blood are analyzed, OX40-positive cells in helper T cells are analyzed by using helper T cell markers. Therefore, OX40-positive cells in the blood herein means OX40 positive helper T cells in the blood.

B1: KHK4083 (antibody, human IgG1, kappa, V domains shown)
VH: QITLKESGPTLVKPKQTLTLTCTFSGFSLSTSGMGVGWIRQPPGKALEWLAVIYWDDHQLYSPSLKSRLTITKDTSKNQVVLTMTNMDPVDTATYYCAHRRGAFQHWGQGTLVTVSS
VL: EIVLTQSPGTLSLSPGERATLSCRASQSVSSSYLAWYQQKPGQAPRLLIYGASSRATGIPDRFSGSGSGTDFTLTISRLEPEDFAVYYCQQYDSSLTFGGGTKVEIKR
notes: also called anti-OX40 antibody
binding result: binds
